The text below walks through data of article PMC5144075.

Test [1] addresses 16A-cys(i)-less (TMEM16A with all cysteines of the cytosolic portion replaced with serines). The test is described as follows: cross-linking; harvested transfected HEK-293 cells in PBS with 300 uM 1,5-pentanediyl bismethanethiosulfonate, 15 min, room temperature; stopped with Laemmli buffer or reversed with 33 mM DTT; SDS-PAGE and Western blot with SP31 antibody.
In test [2] the target is 16A-cys(i)-less R494C/K921C. The description is as above.
For test [3], the target named is TMEM16A fused to a fluorescent protein (eGFP-TMEM16A, TMEM16A-eGFP, TMEM16A-mCherry). The test is described as follows: FRET or BRET; acceptor photobleaching FRET, confocal microscope, HEK-293 cells co-transfected with eGFP-TMEM16A (donor) and TMEM16A-mCherry (acceptor): NT-CT configuration.

Sequence of TMEM16A fused to a fluorescent protein (eGFP-TMEM16A, TMEM16A-eGFP, TMEM16A-mCherry) (Q5XXA6 whole entry, the tested form may be a part): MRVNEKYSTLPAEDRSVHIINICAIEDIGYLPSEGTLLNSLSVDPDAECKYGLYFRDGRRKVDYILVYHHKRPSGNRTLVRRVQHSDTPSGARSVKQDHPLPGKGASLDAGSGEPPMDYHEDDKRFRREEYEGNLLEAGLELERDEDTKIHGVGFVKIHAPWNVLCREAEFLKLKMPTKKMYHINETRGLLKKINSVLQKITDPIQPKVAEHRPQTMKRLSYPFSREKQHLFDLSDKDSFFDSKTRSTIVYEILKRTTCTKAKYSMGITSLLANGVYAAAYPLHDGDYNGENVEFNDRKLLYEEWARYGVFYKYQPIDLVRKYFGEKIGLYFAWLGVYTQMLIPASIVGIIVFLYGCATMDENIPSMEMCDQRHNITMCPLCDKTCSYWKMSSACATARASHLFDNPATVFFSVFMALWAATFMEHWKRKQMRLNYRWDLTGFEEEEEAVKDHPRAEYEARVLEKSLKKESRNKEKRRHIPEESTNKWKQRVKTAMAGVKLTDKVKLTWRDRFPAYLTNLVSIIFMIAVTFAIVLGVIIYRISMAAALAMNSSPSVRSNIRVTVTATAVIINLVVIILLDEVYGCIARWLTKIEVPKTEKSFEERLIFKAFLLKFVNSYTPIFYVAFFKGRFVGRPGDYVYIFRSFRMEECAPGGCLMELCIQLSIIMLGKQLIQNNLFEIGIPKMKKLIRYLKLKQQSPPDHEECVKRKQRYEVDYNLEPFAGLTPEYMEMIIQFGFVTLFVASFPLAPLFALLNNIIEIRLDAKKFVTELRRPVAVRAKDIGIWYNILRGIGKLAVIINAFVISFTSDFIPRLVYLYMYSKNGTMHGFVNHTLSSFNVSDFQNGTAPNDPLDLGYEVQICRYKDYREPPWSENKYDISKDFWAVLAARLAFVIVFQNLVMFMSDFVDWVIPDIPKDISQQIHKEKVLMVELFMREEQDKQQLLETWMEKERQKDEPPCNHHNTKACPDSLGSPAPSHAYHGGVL

On to “16A-cys(i)-less (TMEM16A with all cysteines of the cytosolic portion replaced with serines) (natural protein)”, for which the stoichiometry N in test [1] came to 2.

In the case of “16A-cys(i)-less R494C/K921C (natural protein)”, the stoichiometry N in test [2] worked out at 2.

As for “TMEM16A fused to a fluorescent protein (eGFP-TMEM16A, TMEM16A-eGFP, TMEM16A-mCherry) (natural protein)”, the FRET efficiency in test [3] amounted to 7.44%.

A word on the stoichiometry N: it is a count of units in the complex or per binding partner.
